One molecule from US20210270842A1 (DYAX, published 2021) can be followed below.

Where “and” joins values, the source holds several entries; their conditions need not be identical. Identical values can stand only once.

Assay [1] has as its target T1, cleaved high molecular weight kininogen (HMWK) (human, UniProt P01042 19-380; P01042 390-644).
T1 construct: also called cleaved HMWK; 2-chain HMWK
T1 sequence 1: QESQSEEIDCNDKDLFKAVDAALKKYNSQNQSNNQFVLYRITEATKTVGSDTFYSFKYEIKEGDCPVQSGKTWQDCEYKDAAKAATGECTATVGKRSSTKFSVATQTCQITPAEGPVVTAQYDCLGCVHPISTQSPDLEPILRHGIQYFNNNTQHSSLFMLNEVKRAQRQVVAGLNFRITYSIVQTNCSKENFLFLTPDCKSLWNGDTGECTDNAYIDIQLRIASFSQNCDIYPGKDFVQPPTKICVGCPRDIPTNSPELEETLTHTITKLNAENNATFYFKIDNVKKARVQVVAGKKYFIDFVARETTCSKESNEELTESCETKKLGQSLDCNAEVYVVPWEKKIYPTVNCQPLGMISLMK
T1 sequence 2: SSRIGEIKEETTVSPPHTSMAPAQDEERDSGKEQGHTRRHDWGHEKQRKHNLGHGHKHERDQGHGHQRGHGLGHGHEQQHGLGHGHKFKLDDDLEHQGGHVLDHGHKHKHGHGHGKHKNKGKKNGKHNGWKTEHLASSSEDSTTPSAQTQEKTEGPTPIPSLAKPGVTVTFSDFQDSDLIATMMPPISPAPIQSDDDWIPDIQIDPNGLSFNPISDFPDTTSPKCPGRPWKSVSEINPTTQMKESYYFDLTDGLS
Description: sandwich ELISA with coated Fab; value = C, midpoint of the printed 4-P fit; 2-chain HMWK spiked into SBT assay buffer. From the text: (§1) Purified cleaved HMWK was spiked into SBT assay buffer (open circles), SBT assay buffer and analyzed in the presence of 10% plasma (squares), or HMWK-deficient plasma and analyzed in the presence of 10% plasma (triangles). Purified cleaved HMWK was also spiked into assay buffer and analyzed in the presence of 2.5% plasma (diamonds) or HMWK deficient plasma and analyzed in the presence of 2.5% plasma (closed circles). The y-axis presents the ELISA signal in absorbance units, and the x-axis presents the concentration of kininogen in μg/mL.
(§2) The following day, the plate was washed and then blocked with 2% BSA (Protease/IgG free) in PBS buffer. Following a wash, samples containing cleaved HMWK in 0.1% BSA buffer in PBS with 0.05% Tween-20 (2-Chain HMWK assay buffer). Purified protein standards (e.g., 2-chain HMWK, intact HMWK or LMWK) were spiked into HMWK-deficient plasma and diluted 1:320 in 2-chain HMWK assay buffer. Following plate washing with PBST, a mixture of 2 mouse monoclonal antibodies (11H05 and 13B12) at 1 μg/mL in 2-chain HMWK assay buffer were added for 1 hour at room temperature. […] Signal was detected by the addition of 3,3′,5,5′-tetramethylbenzidine (TMB), an HRP substrate. […] Hydrolysis of a TMB substrate was detected using a microplate reader at 450 nm-630 nm (FIG. 3). […] Using these immunoassay conditions, specifically binding to cleaved HMWK was detected.
On the technique in general: In an ELISA, binding on a coated surface is turned into a signal by an enzyme label.

The target in assay [2] is T1, cleaved high molecular weight kininogen …. Description: sandwich ELISA with coated Fab; value = C, midpoint of the printed 4-P fit; 2-chain HMWK spiked into assay buffer, analysed in 2.5% plasma.
Source text: as §1, §2

Assay [3] has the same target. Description: optimized sandwich ELISA: M004-B04 capture, detection 11H05 + 13B12; value = C, midpoint of the printed 4-P fit; in-well concentration. The method, then:
(§3) The following day, the plate was washed and then blocked with 2% BSA (Protease/IgG free) in PBS buffer. Following a wash, samples containing cleaved HMWK in 0.1% BSA buffer in PBS with 0.05% Tween-20 (2-Chain HMWK assay buffer). Purified protein standards (e.g., 2-chain HMWK, intact HMWK or LMWK) were spiked into HMWK-deficient plasma and diluted 1:320 in 2-chain HMWK assay buffer. Following plate washing with PBST, a mixture of 2 mouse monoclonal antibodies (11H05 and 13B12) at 1 μg/mL in 2-chain HMWK assay buffer were added for 1 hour at room temperature. Unbound detection antibodies were washed and a 1:2000 dilution of goat anti-mouse secondary antibody conjugated to horseradish peroxidase (HRP) was added. The assay containing the secondary antibody was incubated for 1 hour at room temperature, and unbound secondary antibody was removed by washing with 2-chain HMWK assay buffer. Signal was detected by the addition of 3,3′,5,5′-tetramethylbenzidine (TMB), an HRP substrate. The reaction was stopped with phosphoric acid. Hydrolysis of a TMB substrate was detected using a microplate reader at 450 nm-630 nm (FIG. 3). […] Using these immunoassay conditions, specifically binding to cleaved HMWK was detected.

For assay [4] the target is unchanged. The assay can be described thus: sandwich ELISA with coated Fab; value = C, midpoint of the printed 4-P fit; 2-chain HMWK spiked into HMWK-deficient plasma, analysed in 10% plasma.
Source text: as §1, §2

Assay [5] shares this target. The assay can be described thus: sandwich ELISA with coated Fab; value = C, midpoint of the printed 4-P fit; 2-chain HMWK spiked into HMWK-deficient plasma, analysed in 2.5% plasma.
Source text: as §1, §2

For assay [6] the target is unchanged. The assay can be described thus: sandwich ELISA: Fab coated on 96-well plate, kininogen titrated, detection 11H05 + 13B12 and goat anti-mouse-HRP; value = C, midpoint of the printed 4-P fit; 2-chain HMWK spiked into SBT assay buffer.
Source text: Purified cleaved HMWK was spiked into SBT assay buffer (circles) or HMWK-deficient plasma (squares). Purified intact HMWK was spiked into SBT assay buffer (triangles). Purified LMWK was spiked into SBT assay buffer (diamonds). The y-axis presents the ELISA signal in absorbance units, and the x-axis presents the concentration of kininogen in μg/mL.
as §3, with “The assay containing the secondary antibody was incubated for 1 hour at room temperature, and unbound secondary antibody was removed by washing with 2-chain HMWK assay buffer.” left out, “The reaction was stopped with phosphoric acid.” left out

Assay [7] shares this target. Description: ELISA on coated M004-B04, 2-chain HMWK titrated after preincubation of the plate with competitor HKH20 peptide at 250 µg/mL; value = C of the printed 4-P fit; squares, right-shifted curve (the callout box on the graph names this curve GCP28: see recheck). How it is done: as §3, with “Following” for “The following day, the plate was washed and then blocked with 2% BSA (Protease/IgG free) in PBS buffer. Following a wash, samples containing cleaved HMWK in 0.1% BSA buffer in PBS with 0.05% Tween-20 (2-Chain HMWK assay buffer). Purified protein standards (e.g., 2-chain HMWK, intact HMWK or LMWK) were spiked into HMWK-deficient plasma and diluted 1:320 in 2-chain HMWK assay buffer. Following”
To perform the assay, the kininogen peptides were diluted to 250 μg/mL and allowed to preincubate on assay plate. Then, purified 2-chain HMWK in deficient human plasma was diluted 160 and then added to plate.

B1: 559B-M0004-B04 (Fab, V domains shown)
VH: EVQLLESGGGLVQPGGSLRLSCAASGFTFSFYVMVWVRQAPGKGLEWVSGISPSGGNTAYADSVKGRFTISRDNSKNTLYLQMNSLRAEDTAVYYCARKLFYYDDTKGYFDFWGQGTLVTVSS
VL: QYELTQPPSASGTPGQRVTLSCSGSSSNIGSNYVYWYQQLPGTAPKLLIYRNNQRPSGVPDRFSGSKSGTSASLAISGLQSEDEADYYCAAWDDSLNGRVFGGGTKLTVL
notes: also called M004-B04
One may read the EC50 as the concentration that produces a half-maximal response. In the case of B1, the EC50 in assay [1] was 226 µg/mL; in assay [2] it was 204 µg/mL; in assay [3], 0.00902 µg/mL and 0.0207 µg/mL and 0.0116 µg/mL; in assay [4], 165 µg/mL; in assay [5], 184 µg/mL; in assay [6], 235 µg/mL. The EC50 in assay [7] turned out to be 0.0375 µg/mL.
